The source of these data is paper PMC6195255, “EBP1 nuclear accumulation negatively feeds back on FERONIA-mediated RALF1 signaling”.

The target in this data set is T1, EBP1-GST (UniProt Q96327-3 1-401).
T1 sequence: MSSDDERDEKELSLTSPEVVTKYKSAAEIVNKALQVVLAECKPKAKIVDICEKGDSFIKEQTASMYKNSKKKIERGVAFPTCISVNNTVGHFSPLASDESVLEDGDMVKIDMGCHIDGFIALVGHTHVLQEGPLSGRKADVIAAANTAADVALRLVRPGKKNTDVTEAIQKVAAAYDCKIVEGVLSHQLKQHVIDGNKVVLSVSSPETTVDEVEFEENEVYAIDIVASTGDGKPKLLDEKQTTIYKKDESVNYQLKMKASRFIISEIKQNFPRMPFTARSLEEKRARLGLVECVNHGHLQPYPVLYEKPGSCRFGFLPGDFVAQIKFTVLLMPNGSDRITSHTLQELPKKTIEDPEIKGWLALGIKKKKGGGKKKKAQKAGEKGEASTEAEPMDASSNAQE
As to the kind of experiment: EMSA; 100 ng EBP1-GST, 100 pg probe; competition with unlabeled CCACGTC DNA; 10 mM Tris pH 7.5, 50 mM KCl, 1 mM MgCl2, 5% glycerol, 0.5 mM DTT, 0.2 mg/mL BSA, 0.5 mg/mL polyglutamate; room temperature 20 min; 6% native PAGE. Conditions: protein: recombinant; tags: GST; label: FITC; blunt. In general terms: A gel shift assay detects complexes by their altered migration in electrophoresis.

B1: CML38 promoter CCACGTC probe (dsDNA)
DNA 1: AACACTAATCTACCACGTCTATTACACACA
DNA 2: TGTGTGTAATAGACGTGGTAGATTAGTGTT
Take B1: the binding result is listed as “binds”.
